Measured values taken from patent US20190367620A1 (Merck KGaA, published 2019).

T1: human FGFR1b-IIIb extracellular domain with a HIS tag (human)
T1 construct: also called huFGFR1b-IIIb; hFGFR1b-IIIb
T1 chain: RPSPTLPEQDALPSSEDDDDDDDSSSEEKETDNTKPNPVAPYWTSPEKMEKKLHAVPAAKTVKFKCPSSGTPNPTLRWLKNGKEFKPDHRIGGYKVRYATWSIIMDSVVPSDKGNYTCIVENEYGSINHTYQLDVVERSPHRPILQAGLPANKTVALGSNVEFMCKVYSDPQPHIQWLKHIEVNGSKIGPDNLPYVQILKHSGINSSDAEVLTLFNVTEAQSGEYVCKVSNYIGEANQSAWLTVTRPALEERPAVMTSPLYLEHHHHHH

T2: human FGFR1b-IIIc extracellular domain with a HIS tag (human, UniProt P11362 22-376)
T2 construct: also called huFGFR1b-IIIc; hFGFR1b-IIIc
T2 sequence: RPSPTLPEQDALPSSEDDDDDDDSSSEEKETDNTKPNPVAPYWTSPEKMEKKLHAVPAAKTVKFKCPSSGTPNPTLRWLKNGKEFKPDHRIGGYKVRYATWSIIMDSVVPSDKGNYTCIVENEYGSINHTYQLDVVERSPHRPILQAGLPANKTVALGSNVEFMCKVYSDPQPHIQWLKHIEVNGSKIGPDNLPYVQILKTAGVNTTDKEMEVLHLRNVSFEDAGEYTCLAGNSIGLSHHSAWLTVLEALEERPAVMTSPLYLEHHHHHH


Assays:
[1] = biological target: T1, human FGFR1b-IIIb extracellular domain …; experiment: SPR (BIAcore), SEEDbody format; target IIIb by paragraph 74 and paragraph 125, the table's title says IIIc
Description: Binding affinities of anti-FGFR1 antibodies to FGFR1 were measured by Surface Plasmon Resonance (SPR) using a GE Healthcare BIAcore 4000 instrument as follows. Goat anti-human Fc antibody (Jackson ImmunoResearch Laboratories #109-005-098) was first immobilized on BIAcore carboxymethylated dextran CM5 chip using direct coupling to free amino groups following the procedure described by the manufacturer. Antibodies were then captured on the CM5 biosensor chip to achieve approximately 200 response units (RU). Binding measurements were performed using the running HBS-EP+ buffer. A 2-fold dilution series of His-tagged FGFR1 proteins were injected at a flow rate of 30 μl/min at 25° C. Association rates (kₒₙ, per mol/s) and dissociation rates (koff, per s) were calculated using a simple 1:1 Langmuir binding model (Biacore 4000 Evaluation Software). The equilibrium dissociation constant (KD, mol) was calculated as the ratio of koff/kₒₙ.
The affinities to human FGFR1b-IIIb for the affinity matured clones reformatted as IgG and monovalent SEEDbodies were measured by BIAcore (using a protocol similar to the one described in Example 1.8) and compared to those of mAb #08 (Table 5).

[2] = biological target: T2, human FGFR1b-IIIc extracellular domain …; experiment: ELISA, EC50 from OD450 curves, monovalent SEEDbody format
Description: The binding selectivity of the antibodies were tested by ELISA against the different FGFR family members: FGFR1, FGFR2, FGFR3 and FGFR4. Briefly plates were coated overnight with the different His6-tagged FGFR proteins, after blocking with 1% Bovine Serum albumin, 1 or 0.1 μg/ml of anti-FGFR1 antibodies were incubated for 1 h at room temperature. After washing, the bound antibodies were incubated for 1 h at room temperature with a peroxidase affiniPure F(ab′)2 Fragment goat anti-human Fc (Jackson ImmunoResearch Laboratories #109-036-098) and detection was performed using the TMB HRP Substrate solution (BioFx Lab # TMBW-1000-01).
The antibody #A08 both as an IgG1 (bivalent) and as a SEEDbody (monovalent), was affinity matured using the yeast display technology described in (Rhiel et al. 2014) and performing light chain shuffling from immunized OmniRats and naïve human library followed by CDR-H3 parsimonious mutagenesis. Following several sorting rounds, yeast clones were picked, unique clones were reformatted as described in Examples 1.6 and 3.1. The binding affinities of the anti-FGFR1 molecules against human FGFR1b-IIIb) and human FGFR1b-IIIc) were measured by ELISA using a similar protocol as described in Example 1.9. The OD450 was plotted against the antibody concentration and GraphPad Prism software was used to calculate EC₅₀ values (see FIG. 10). […] The best results were obtained with mAb #A02 and #C01 showing an EC50 improvement in both IgG1 and SEEDbody formats.

FGFR1 on NCI-H520 cells = FGFR1 on NCI-H520 cells (human, UniProt P11362 22-822); experiment: cell-based or functional assay
Sequence of FGFR1 on NCI-H520 cells (P11362 22-822): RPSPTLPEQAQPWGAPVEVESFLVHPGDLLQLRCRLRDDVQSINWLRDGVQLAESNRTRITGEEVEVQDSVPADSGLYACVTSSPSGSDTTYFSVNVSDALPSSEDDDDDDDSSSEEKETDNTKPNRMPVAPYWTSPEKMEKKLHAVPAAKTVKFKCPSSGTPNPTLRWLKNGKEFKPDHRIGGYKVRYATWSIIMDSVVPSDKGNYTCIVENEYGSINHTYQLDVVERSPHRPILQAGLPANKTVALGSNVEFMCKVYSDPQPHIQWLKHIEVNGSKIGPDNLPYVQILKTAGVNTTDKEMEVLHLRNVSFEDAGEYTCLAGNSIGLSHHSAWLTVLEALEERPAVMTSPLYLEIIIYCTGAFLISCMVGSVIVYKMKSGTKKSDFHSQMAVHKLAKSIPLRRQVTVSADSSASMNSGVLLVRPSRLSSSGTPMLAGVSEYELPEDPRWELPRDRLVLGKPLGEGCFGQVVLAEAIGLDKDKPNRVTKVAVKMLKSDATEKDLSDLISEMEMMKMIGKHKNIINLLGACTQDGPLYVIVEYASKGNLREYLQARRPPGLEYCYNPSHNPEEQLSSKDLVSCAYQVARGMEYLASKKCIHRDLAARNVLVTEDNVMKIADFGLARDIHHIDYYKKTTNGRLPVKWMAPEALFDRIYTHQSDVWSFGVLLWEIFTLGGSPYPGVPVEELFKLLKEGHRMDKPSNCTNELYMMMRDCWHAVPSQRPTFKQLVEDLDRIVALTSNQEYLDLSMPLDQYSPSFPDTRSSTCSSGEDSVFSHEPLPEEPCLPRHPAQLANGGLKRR

| Binder | Kd [1] [nM] | binding result [2] | IC50, pFGFR1 inhibition in NCI-H520 cells, FGF1, SEEDbody (FGFR1 on NCI-H520 cells) [M] | IC50, pFGFR1 inhibition in NCI-H520 cells, FGF2, SEEDbody (FGFR1 on NCI-H520 cells) [M] | IC50, pFGFR1 inhibition in NCI-H520 cells, non-stimulated, SEEDbody (FGFR1 on NCI-H520 cells) [M] |
| --- | --- | --- | --- | --- | --- |
| #A02 SEEDbody (monovalent) (antibody, also called #A02-SEED(AG)) heavy: QVQLQESGPGLVKPSGTLSLTCAVSGGSISSNNWWSWVRQPPGKGLEWIGEIYHSGSTSYNPSLKSRVTISVDKSKNQFSLKLSSVTAADTAVYYCARATDWFDLWGQGTLVTVSSASTKGPSVFPLAPSSKSTSGGTAALGCLVKDYFPEPVTVSWNSGALTSGVHTFPAVLQSSGLYSLSSVVTVPSSSLGTQTYICNVNHKPSNTKVDKRVEPKSCDKTHTCPPCPAPELLGGPSVFLFPPKPKDTLMISRTPEVTCVVVDVSHEDPEVKFNWYVDGVEVHNAKTKPREEQYNSTYRVVSVLTVLHQDWLNGKEYKCKVSNKALPAPIEKTISKAKGQPFRPEVHLLPPSREEMTKNQVSLTCLARGFYPKDIAVEWESNGQPENNYKTTPSRQEPSQGTTTFAVTSKLTVDKSRWQQGNVFSCSVMHEALHNHYTQKTISLSPG EPKSSDKTHTCPPCPAPELLGGPSVFLFPPKPKDTLMISRTPEVTCVVVDVSHEDPEVKFNWYVDGVEVHNAKTKPREEQYNSTYRVVSVLTVLHQDWLNGKEYKCKVSNKALPAPIEKTISKAKGQPREPQVYTLPPPSEELALNELVTLTCLVKGFYPSDIAVEWLQGSQELPREKYLTWAPVLDSDGSFFLYSILRVAAEDWKKGDTFSCSVMHEALHNHYTQKSLDRSPG light: SYVLTQPPSVSVAPGQTARITCGGNNIGSESVHWYQQKPGQAPVLVVYDDSDRPSGIPERFSGSNSGNTATLTISRVEAGDEADYYCQVWDSTSDHRVFGGGTKLTVLGQPKAAPSVTLFPPSSEELQANKATLVCLISDFYPGAVTVAWKADSSPVKAGVETTTPSKQSNNKYAASSYLSLTPEQWKSHKSYSCQVTHEGSTVEKTVAPTECS | 0.06 | binds |  |  |  |
| #C01 SEEDbody (monovalent) (antibody, also called #C01-SEED(AG)) heavy: QVQLQESGPGLVKPSGTLSLTCAVSGGSISSNNWWSWVRQPPGKGLEWIGEIYHSGSTSYNPSLKSRVTISVDKSKNQFSLKLSSVTAADTAVYYCARATDWFDAWGQGTLVTVSSASTKGPSVFPLAPSSKSTSGGTAALGCLVKDYFPEPVTVSWNSGALTSGVHTFPAVLQSSGLYSLSSVVTVPSSSLGTQTYICNVNHKPSNTKVDKRVEPKSCDKTHTCPPCPAPELLGGPSVFLFPPKPKDTLMISRTPEVTCVVVDVSHEDPEVKFNWYVDGVEVHNAKTKPREEQYNSTYRVVSVLTVLHQDWLNGKEYKCKVSNKALPAPIEKTISKAKGQPFRPEVHLLPPSREEMTKNQVSLTCLARGFYPKDIAVEWESNGQPENNYKTTPSRQEPSQGTTTFAVTSKLTVDKSRWQQGNVFSCSVMHEALHNHYTQKTISLSPG EPKSSDKTHTCPPCPAPELLGGPSVFLFPPKPKDTLMISRTPEVTCVVVDVSHEDPEVKFNWYVDGVEVHNAKTKPREEQYNSTYRVVSVLTVLHQDWLNGKEYKCKVSNKALPAPIEKTISKAKGQPREPQVYTLPPPSEELALNELVTLTCLVKGFYPSDIAVEWLQGSQELPREKYLTWAPVLDSDGSFFLYSILRVAAEDWKKGDTFSCSVMHEALHNHYTQKSLDRSPG light: SYVLTQPPSVSVAPGQTARITCGGNNIGSESVHWYQQKPGQAPVLVVYDDSDRPSGIPERFSGSNSGNTATLTISRVEAGDEADYYCQVWDSTSDHRVFGGGTKLTVLGQPKAAPSVTLFPPSSEELQANKATLVCLISDFYPGAVTVAWKADSSPVKAGVETTTPSKQSNNKYAASSYLSLTPEQWKSHKSYSCQVTHEGSTVEKTVAPTECS | 0.04 | binds |  |  |  |
| A05 SEEDbody (monovalent) (antibody, V domains shown) VH: not shown VL: QSALTQPASVSGSPGQSITISCTGTSSDVGSYNLVSWYQQHPGKAPKLMIYGGSKRPSGVPDRFSGSKSGNTASLTISGLQAEDEADYYCSSYTYSGDVFGTGTKVTVL |  |  | > 1e-06 | 4e-07 | > 1e-06 |

Other lines, results leading:

| Kd [1] [nM] | binding result [2] | IC50, pFGFR1 inhibition in NCI-H520 cells, FGF1, SEEDbody (FGFR1 on NCI-H520 cells) [M] | IC50, pFGFR1 inhibition in NCI-H520 cells, FGF2, SEEDbody (FGFR1 on NCI-H520 cells) [M] | IC50, pFGFR1 inhibition in NCI-H520 cells, non-stimulated, SEEDbody (FGFR1 on NCI-H520 cells) [M] | Binder |
| --- | --- | --- | --- | --- | --- |
| 0.02 | binds |  |  |  | #B10 SEEDbody (monovalent) (antibody, also called #B10-SEED(AG)) heavy: QVQLQESGPGLVKPSGTLSLTCAVSGGSISSNNWWSWVRQPPGKGLEWIGEIYHSGSTSYNPSLKSRVTISVDKSKNQFSLKLSSVTAADTAVYYCARATDWYDPWGQGTLVTVSSASTKGPSVFPLAPSSKSTSGGTAALGCLVKDYFPEPVTVSWNSGALTSGVHTFPAVLQSSGLYSLSSVVTVPSSSLGTQTYICNVNHKPSNTKVDKRVEPKSCDKTHTCPPCPAPELLGGPSVFLFPPKPKDTLMISRTPEVTCVVVDVSHEDPEVKFNWYVDGVEVHNAKTKPREEQYNSTYRVVSVLTVLHQDWLNGKEYKCKVSNKALPAPIEKTISKAKGQPFRPEVHLLPPSREEMTKNQVSLTCLARGFYPKDIAVEWESNGQPENNYKTTPSRQEPSQGTTTFAVTSKLTVDKSRWQQGNVFSCSVMHEALHNHYTQKTISLSPG EPKSSDKTHTCPPCPAPELLGGPSVFLFPPKPKDTLMISRTPEVTCVVVDVSHEDPEVKFNWYVDGVEVHNAKTKPREEQYNSTYRVVSVLTVLHQDWLNGKEYKCKVSNKALPAPIEKTISKAKGQPREPQVYTLPPPSEELALNELVTLTCLVKGFYPSDIAVEWLQGSQELPREKYLTWAPVLDSDGSFFLYSILRVAAEDWKKGDTFSCSVMHEALHNHYTQKSLDRSPG light: SYVLTQPPSVSVAPGQTARITCGGNNIGSESVHWYQQKPGQAPVLVVYDDSDRPSGIPERFSGSNSGNTATLTISRVEAGDEADYYCQVWDSTSDHRVFGGGTKLTVLGQPKAAPSVTLFPPSSEELQANKATLVCLISDFYPGAVTVAWKADSSPVKAGVETTTPSKQSNNKYAASSYLSLTPEQWKSHKSYSCQVTHEGSTVEKTVAPTECS |
| 0.08 |  | 7e-08 | 6e-09 | 2e-08 | monovalent SEEDbody #A08 (antibody, One-armed SEEDbody: full SEED(AG) heavy chain, partial hinge-CH2-CH3 SEED(GA) chain, lambda light chain; produced in CHO-LF cells (afucosylated); also called anti-FGFR1 SEEDbody; #A08 SEEDbody) heavy: EVQLQESGPGLVKPSGTLSLTCAVSGGSISSNNWWSWVRQPPGKGLEWIGEIYHSGSTSYNPSLKSRVTISVDKSKNQFSLKLSSVTAADTAVYYCARGTDWFDPWGQGTLVTVSSASTKGPSVFPLAPSSKSTSGGTAALGCLVKDYFPEPVTVSWNSGALTSGVHTFPAVLQSSGLYSLSSVVTVPSSSLGTQTYICNVNHKPSNTKVDKRVEPKSCDKTHTCPPCPAPELLGGPSVFLFPPKPKDTLMISRTPEVTCVVVDVSHEDPEVKFNWYVDGVEVHNAKTKPREEQYNSTYRVVSVLTVLHQDWLNGKEYKCKVSNKALPAPIEKTISKAKGQPFRPEVHLLPPSREEMTKNQVSLTCLARGFYPKDIAVEWESNGQPENNYKTTPSRQEPSQGTTTFAVTSKLTVDKSRWQQGNVFSCSVMHEALHNHYTQKTISLSPG EPKSSDKTHTCPPCPAPELLGGPSVFLFPPKPKDTLMISRTPEVTCVVVDVSHEDPEVKFNWYVDGVEVHNAKTKPREEQYNSTYRVVSVLTVLHQDWLNGKEYKCKVSNKALPAPIEKTISKAKGQPREPQVYTLPPPSEELALNELVTLTCLVKGFYPSDIAVEWLQGSQELPREKYLTWAPVLDSDGSFFLYSILRVAAEDWKKGDTFSCSVMHEALHNHYTQKSLDRSPG light: SYVLTQPPSVSVAPGQTARITCGGNNIGSESVHWYQQKPGQAPVLVVYDDSDRPSGIPERFSGSNSGNTATLTISRVEAGDEADYYCQVWDSTSDHRVFGGGTKLTVLGQPKAAPSVTLFPPSSEELQANKATLVCLISDFYPGAVTVAWKADSSPVKAGVETTTPSKQSNNKYAASSYLSLTPEQWKSHKSYSCQVTHEGSTVEKTVAPTECS |
